Target: porcine dentin sialoprotein (DSP) (porcine)
Assay: SDS-PAGE and Western blot under oxidizing

Substance: porcine dentin sialoprotein (DSP) (natural protein)
- stoichiometry N: 2
